{"source": "patent US20170037425A1", "about": "“METHOD FOR IMPROVING PLANT TRAIT” (SHANGHAI INSTITUTES FOR BIOLOGICAL SCIENCES, CHINESE …, priority 2012, published 2017)", "molecules": {"B1": {"name": "scubGFP: green fluorescent protein from Scolymia cubensis (AY037767), SEQ ID NO: 40 (protein, listed as Echinopora forskaliana)", "chain": "MQRAGMKVKEHMKIKLRMGGTVNGKHFAVNGTGDGYPYQGKQILKLIVEGSEPLPFAFDILSAAFQYGNRAFTEYPTEIADYFKQSFEFGEGFSWERSFTFEDGAICVATNDITMVGGEFQYDIRFDGLNFPEDGPVMQKKTVKWEPSTEIMYMQNGVLKGEVNMALLLQDKSHYRCDLKTTYKAKNNVPHPPGYHYVDHCIEILEERKDHVKLREHAKARSSLSPTSAKERKA"}, "B2": {"name": "efofCP/RFP: protein from Echinopora forskaliana (EU498726), SEQ ID NO: 34 (protein, listed as Echinopora forskaliana)", "chain": "MSVIKQVMKTKLHLEGTVNGHDFTIEGKGEGKPYEGLQHMKMTVTKGAPLPFSVHILTPSHMYGSKPFNKYPADIPDYHKQSFPEGMSWERSMIFEDGGVCTASNHSSINLQENCFIYDVKFHGVNLPPDGPVMQKTIAGWEPSVETLYVRDGMLKSDTAMVFKLKGGGHHRVDFKTTYKAKKPVKLPEFHFVEHRLELTKHDKDFTTWDQQEAAEGHFSPLPKALP"}, "B3": {"name": "cpGFP: green fluorescent protein from Chiridius poppei (AB185173), SEQ ID NO: 52 (protein, listed as Chiridius poppei)", "chain": "MTTFKIESRIHGNLNGEKFELVGGGVGEEGRLEIEMKTKDKPLAFSPFLLSHCMGYGFYHFASFPKGTKNIYLHAATNGGYTNTRKEIYEDGGILEVNFRYTYEFNKIIGDVECIGHGFPSQSPIFKDTIVKSCPTVDLMLPMSGNIIASSYARAFQLKDGSFYTAEVKNNIDFKNPIHESFSKSGPMFTHRRVEETHTKENLAMVEYQQVFNSAPRDM"}, "B4": {"name": "spisCP: non-fluorescent chromoprotein from Stylophora pistillata (DQ206398), SEQ ID NO: 38 (protein, listed as Echinopora forskaliana)", "chain": "MSHSKQALADTMKMTWLMEGSVNGHAFTIEGEGTGKPYEGKQSGTFRVTKGGPLPFAFDIVAPTLKYGFKCFMKYPADIPDYFKLAFPEGLTYDRKIAFEDGGCATATVEMSLKGNTLVHKTNFQGGNFPIDGPVMQKRTLGWEPTSEKMTPCDGIIKGDTIMYLMVEGGKTLKCRYENNYRANKPVLMPPSHFVDLRLTRTNLDKEGLAFKLEEYAVARVLEV"}, "B5": {"name": "phiYFP: yellow fluorescent protein from Phialidium sp. SL-2003 (AY485333), SEQ ID NO: 50 (protein)", "chain": "MSSGALLFHGKIPYVVEMEGNVDGHTFSIRGKGYGDASVGKVDAQFICTTGDVPVPWSTLVTTLTYGAQCFAKYGPELKDFYKSCMPEGYVQERTITFEGDGVFKTRAEVTFENGSVYNRVKLNGQGFKKDGHVLGKNLEFNFTPHCLYIWGDQANHGLKSAFKIMHEITGSKEDFIVADHTQMNTPIGGGPVHVPEYHHITYHVTLSKDVTDHRDNMSLVETVRAVDCRKTYL", "modifications": "Aequorea Victoria"}, "B6": {"name": "rmueGFP: green fluorescent protein from Renilla muelleri (AY015996), SEQ ID NO: 44 (protein, listed as Renilla muelleri)", "chain": "MSKQILKNTCLQEVMSYKVNLEGIVNNHVFTMEGCGKGNILFGNQLVQIRVTKGAPLPFAFDIVSPAFQYGNRTFTKYPNDISDYFIQSFPAGFMYERTLRYEDGGLVEIRSDINLIEDKFVYRVEYKGSNFPDDGPVMQKTILGIEPSFEAMYMNNGVLVGEVILVYKLNSGKYYSCHMKTLMKSKGVVKEFPSYHFIQHRLEKTYVEDGGFVEQHETAIAQMTSIGKPLGSLHEWV"}, "B7": {"name": "hcriCP: chromoprotein from Heteractis crispa (AF363776), SEQ ID NO: 32 (protein)", "chain": "MAGLLKESMRIKMYMEGTVNGHYFKCEGEGDGNPFTGTQSMRIHVTEGAPLPFAFDILAPCCEYGSRTFVHHTAEIPDFFKQSFPEGFTWERTTTYEDGGILTAHQDTSLEGNCLIYKVKVLGTNFPADGPVMKNKSGGWEPCTEVVYPENGVLCGRNVMALKVGDRRLICHLYTSYRSKKAVRALTMPGFHFTDIRLQMPRKKKDEYFELYEASVARYSDLPEKAN", "modifications": "Entacmaea quadricolor"}, "B8": {"name": "rfloRFP: red fluorescent protein from Ricordea florida (AY037773), SEQ ID NO: 42 (protein, listed as Ricordea florida)", "chain": "MSALKEEMKIKLTLVGVVNGHPFKIIGDGKGKPYEGSQELTLAVVEGGPLPFSYDILTTIVHYGNRAFVNYPKDIPDIFKQTCSGPGAGYSWQRTMSFEDGGVCTATSHIRVDGDTFNYDIHFMGADFPLNGPVMQKRTVKWEPSTEIMFQCDGLLRGDVAMSLLLKGGGHYRCDFKTIYKPKKNVKMPGYHFVDHCIEITSQQDDYNVVELYEGAVAHYSPLQKPCQAKA"}, "B9": {"name": "ceriantRFP: red fluorescent protein from Cerianthus sp. DW-2003 (AY296063), SEQ ID NO: 46 (protein, listed as Cerianthus sp.)", "chain": "MNLSKNVSVSVYMKGNVNNHEFEYDGEGGGDPYTGKYSMKMTLRGQNCLPFSYDIITTAFQYGFRVFTKYPEGIVDYFKDSLPDAFQWNRRIVFEDGGVLNMSSDITYKDNVLHGDVWAVGVNFPPNGPVMKNEIVMEEPTEETFTPKNGVLVGFCPKAYLLKDGSYYYGNMTTFYRSKKSGQAPPGYHFVKHRLVKTNVGHGFKTVEQTEYATAHVSDLPK"}, "B10": {"name": "anm2CP: chromoprotein from Anthomedusae sp. SL-2003 (AY485336), SEQ ID NO: 48 (protein, listed as Anthomedusae sp.)", "chain": "MEGGPALFQSDMTFKIFIDGVVNDQKFTIIADGSSKFPHGDFNVHAVCETGKLPMSWKPICHLIQYGEPFFAKYPNGISHFAQECFPEGLTIDRTVRFENDGTMTSHHTYELDGTCVISRITVNCDGFQPDGPIMKDQLVDILPTETHMFPHGSNAVRQLCYIGFTTADGGLMMSHFDSKLTFNGSRAIKIPGPHFVTVIIKQMKDTSDKRDHVCQREVTYAHSVPRITSAI"}, "B11": {"name": "efasCFP: cyan fluorescent protein from Eusmilia fastigiata (DQ206397), SEQ ID NO: 36 (protein, listed as Echinopora forskaliana)", "chain": "MSFSKQVLNDVTMTYFMEGSVNGHDFTIEGEGTGKPYEGHQRFNLRVTKGAPLPFAVDILSAAFAYGNRCFTKYPKEIPDFFKQSLPEDMSWERTMTFEDGGIVAISAHIRLIGNRFEHKSKFVGVNFPADGPVMQRKTLGWEPSSEKMTPRDGILKGYVPSFLVLQGGGNYRCDYDTSYRAMKPVEMPGGHFIQHRIVRRDIKKDSNGNTWQIQEDAFAHNSEVPDSA"}}, "data": [{"test": "In vitro H2O hydrolysis and oxygen evolution catalyzed by LEAT protein under light", "assay_type": "biochemical", "design": "key to O2 evolution activity: +: similar O2 evolution activity as that of YFP; ++: higher O2 evolution activity than that of YFP by at least one order of magnitude; weak: lower activity than that of YFP by at least one order of magnitude", "conditions": "water hydrolysis and O2 evolution under light, relative to YFP", "method": "1.85 ml of 50 mM phosphate buffer (pH6.5) was added in the reaction vessel of Clark-type oxygen electrode, then LEAT proteins (at a final concentration of 0.02-1 μg/ml) and 400 μM 2,3,5-trimethyl-1,4-benzoquinone (TMBQ) or other quinones were sequentially added into the buffer in dark. The oxygen evolution rate was measured under the light with corresponding excitation wave length for LEAT proteins and light intensity at 1-2 μmol m^−2 s^−1.", "values": [{"molecule": "B1", "O2 evolution activity": "+"}, {"molecule": "B2", "O2 evolution activity": "+"}, {"molecule": "B3", "O2 evolution activity": "+"}, {"molecule": "B4", "O2 evolution activity": "++"}, {"molecule": "B5", "O2 evolution activity": "++"}, {"molecule": "B6", "O2 evolution activity": "++"}, {"molecule": "B7", "O2 evolution activity": "+"}, {"molecule": "B8", "O2 evolution activity": "++"}, {"molecule": "B9", "O2 evolution activity": "++"}, {"molecule": "B10", "O2 evolution activity": "+"}, {"molecule": "B11", "O2 evolution activity": "+"}]}]}
